As a reminder, the Kd is the concentration at which binding is half-saturated. The IC50 is the concentration needed to halve the response being measured.

The record followed here is patent publication US20070274981A1.

Assay [1] addresses Recombinant FGFR-1(IIIc) (UniProt P11362). Kind of assay: kinetic analysis (BiaCore).
Assay [2] shares this target. Kind of assay: BiaCore 3000 biosensor, binding kinetics.
Assay [3] has the same target. Kind of assay: ELISA blocking assay: FGFR-1(IIIc) binding to immobilised FGF-1. For orientation: In an ELISA, binding on a coated surface is turned into a signal by an enzyme label.
Assay [4] shares this target. Kind of assay: ELISA blocking assay: FGFR-1(IIIc) binding to immobilised FGF-2.
For assay [5], the target named is FGFR-1(IIIc) on transfected L6 cells (UniProt P11362). Kind of assay: cell-based blocking assay: 125I-FGF-2 (15 ng/ml) binding to FGFR-1(IIIc)-expressing L6 cells.
The target of assay [6] is Recombinant FGFR-1(IIIc) (UniProt P11362). Nature of the assay: ELISA blocking assay: FGFR-1(IIIc) binding to FGF-1.
Assay [7] shares this target. Kind of assay: ELISA blocking assay: FGFR-1(IIIc) binding to FGF-2.

B1: FR1-H7 (antibody, V domains shown)
VH: EVQLVQSGAEVKKPGASVKVSCKVSGYTFTDYYMHWVQQAPGKGLEWMGLVDPEDGETIYAEKFQGRVTITADTSTDTAYMELSSLRSEDTAVYYCARDDYMDVWGKGTLVTVSS
VL: ETTLTQSPDTLSLSPGEGATLSCRASQSVSGSALAWYQQKPGQAPRLLIYDASSRATGVPDRFSGSGSGADFSLTISRLEPEDFAVYSCQQYGSSPLTFGPGTKVDVKR
B1: the dissociation constant (Kd) was found to be 0.05 nM in the assay with Recombinant FGFR-1(IIIc) [1] and 0.04 nM with Recombinant FGFR-1(IIIc) [2]. In addition, the IC50 with Recombinant FGFR-1(IIIc) [3] was 5 nM; with Recombinant FGFR-1(IIIc) [4] it was 2 to 5 nM; in assay [5], under 5 nM.

B2: FR1-A1 (antibody, V domains shown)
VH: QVQLVQSGAEVKKPGSSVKVSCKASGQTFTGYYMHWVRQAPGQGLEWMGRIIPILGIANYAQKFQGRVTITADKSTSTAYMELSSLRSEDTAVYYCARGGDLGGMDVWGQG
VL: EIVLTQSPLSLPVTPGEPASISCRSSQSLRHSNGYNYLDWYLQKPGQSPQLLIYLASNRASGVPDRFSGSGSGTDFTLKISRVEAEDVGVYYCMQALQIPPTFGPGTKVDIKR
With B2, the dissociation constant Kd with Recombinant FGFR-1(IIIc) [1] turned out to be 0.7 nM. The IC50 amounted to 5 nM with Recombinant FGFR-1(IIIc) [6] and 10 nM in the assay with Recombinant FGFR-1(IIIc) [7].
